Assay results as given in patent publication US20100240578A1 (priority 2006, published 2010).
Read-outs that look alike come from different tables or passages of the source.

How the values were obtained:
Assay type in all cases: cell-based, avian influenza A (H5N1)
[1] = tested on: bird H5N1 influenza virus strain Duck/MN/1525/81
[2] = tested on: bird H5N1 influenza virus strain Duck/MN/1525/81; remark: listed apart in the source
[3] = tested on: bird H5N1 influenza virus strain Gull/PA/4175/83
[4] = tested on: bird H5N1 influenza virus strain Gull/PA/4175/83; remark: listed apart in the source
[5] = tested on: humanized H5N1 influenza virus strain Hong Kong/491/1997
[6] = tested on: humanized H5N1 influenza virus strain Hong Kong/491/1997; remark: listed apart in the source
[7] = tested on: humanized H5N1 influenza virus strain Hong Kong/213/2003
[8] = tested on: humanized H5N1 influenza virus strain Hong Kong/213/2003; remark: listed apart in the source
[9] = tested on: humanized H5N1 influenza virus strain Vietnam/1203/2004H
[10] = tested on: humanized H5N1 influenza virus strain Vietnam/1203/2004H; remark: listed apart in the source
[11] = tested on: humanized H5N1 influenza virus strain Vietnam/1203/2004H; remark: listed apart in the source
[12] = tested on: all tested strains of H5N1

B1: Cyanovirin-N (protein, listed as Nostoc ellipsosporum)
chain: LGKFSQTCYNSAIQGSVLTSTCERTNGGYNTSSIDLNSVIENVDGSLKWQPSNFIETCRNTQLAGSSELAAECKTRAQQFVSTKINLDDHIANIDGTLKYE
- EC90 [1]: 0.7 µg/mL
- EC50 [2]: 0.5 µg/mL
- IC50 [2]: 2 µg/mL
- EC90 [3]: 0.1 µg/mL
- EC50 [4]: 0.1 µg/mL
- IC50 [4]: 3 µg/mL
- activity against the strain (in words) [4]: moderately active
- EC90 [5]: 0.1 µg/mL
- EC50 [6]: <0.0032 µg/mL
- IC50 [6]: 3 µg/mL
- activity against the strain (in words) [6]: moderately active
- IC50 [7]: >1 µg/mL
- IC50 [8]: >1 µg/mL
- activity against the strain (in words) [8]: highly active
- EC90 [9]: 0.2 µg/mL
- activity against the strain (in words) [10]: moderately active
- EC50 [11]: 0.03 µg/mL
- IC50 [11]: >1 µg/mL
- activity against all tested strains of H5N1 (in words) [12]: active
